In the supplement of paper PMC10567573:

B1: FBXO34 (parent)
chain: ASSVESTLPVLEASSWKKQVSHDF
B2: OAS1 (parent)
chain: YIGTHEYPHFSHRPSTLQAASTPQ

Variants of: B1
Assay: protein stability index of a GFP-peptide fusion (GPS, HEK-293T) (PSI 1-6); higher = more stable
Settings: c terminus: a fixed tail appended
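Note: lentivirally expressed fusions sorted by FACS into six bins by GFP to DsRed ratio, PSI derived from sequencing read proportions per bin multiplied by bin number.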

Protein stability index of substitutions, site by site:
S3: Q 2.88, D 3.29, V 2.49, I 2.69, N 3.07, M 2.63, C 2.19, E 3.72, W 2.02, K 2.56, P 3.31, F 2.38, Y 2.46, H 3.38, T 3.22, G 3.27, A 1.86, L 2.62
V4: Y 2.46, T 2.88, F 2.1, R 2.64, Q 3.53, I 2.75, M 2.51, A 3.39, H 3.39, C 2.45, W 2.5, P 2.77, S 3.01, G 3.15, D 2.4, E 3.67
S2: D 3.18, F 1.92, R 2.8, N 2.58, W 2.56, Y 2.28, T 3.39, A 2.81, C 1.85, K 3.04, H 2.4, Q 3.09, G 2.81, L 1.47, I 2.26, E 3.94, V 2.92, P 3.46
A1: N 2.9, S 3.36, I 1.95, T 2.79, R 2.97, V 2.27, Q 2.44, L 3.35, Y 1.78, K 2.1, D 3.32, C 2.1, P 2.64, F 2.11, G 2.99, M 2.71, E 2.83
E5: F 1.77, D 3.22, H 2.4, K 2.48, L 2.9, G 2.61, A 2.68, M 2.84, N 2.28, C 2.38, I 2.17

Variants of: B2
Assay: as above
Settings: c terminus: a fixed tail appended

Protein stability index: each site, then its substitutions
I2: T 2.17, D 3.48, M 2.92, R 3.68, N 3.29, P 2.47, L 2.73, V 2.61, G 3.15, F 2.67, H 1.44, Q 2.59, A 2.29
Y7: I 2.44, M 2.37, E 3.16, N 2.15, L 2.06, T 2.3, A 2.23, G 1.98, Q 2.65, H 2.18, S 2.55
S15: K 1.82, H 1.82, W 3.2, A 2.13, C 1.61, V 2, T 1.94, P 1.62, L 1.69, I 1.85, M 1.6, G 1.79, N 2.24
Y1: Q 4.21, C 3.33, G 4.34, S 4, I 3.58, M 3.66, F 1.49, L 3.54, T 4.07, A 4.01, P 4.32, W 2.73
P14: C 1.78, L 1.7, A 1.81, H 2.1, N 2.1, E 2.17, G 2.21, V 2.48, I 1.72, W 2.81, K 2.13
L17: N 2.42, H 1.93, C 2.14, T 1.98, M 2.24, I 1.9, W 2.01
Q18: T 1.9, I 1.94, Y 2.37, G 2.06, L 2.08, M 1.74, V 1.99, R 1.95, P 1.81, F 2.25, C 2.08
A20: C 1.84, R 1.82, L 2.39, H 1.64, P 1.97, E 2.56, I 2.19, Y 1.89
E6: A 2, R 1.61, S 1.79, V 1.88, C 2.26, T 2.14, I 1.75, M 1.46
H12: V 1.93, R 2.55, W 1.46, K 2.07, A 1.97, G 1.71, Y 1.92, N 2.12, M 1.68, I 1.72, S 1.83, P 2.15
G3: S 2.03, Y 1.6, R 2.07, E 1.8, F 2.35, L 2.19, A 2.11, V 1.95
H9: M 2.33, S 2.09, K 1.94, L 1.67, C 1.48, G 1.95, W 3.41, T 2.09
T4: A 1.86, Y 1.84, R 1.7, H 1.95, I 1.84, P 2.34, S 1.89, N 2.2, F 2.11, L 1.81, D 2.56
A19: S 1.9, Y 2.42, V 1.81, F 1.99, D 2.3, W 1.28, N 1.9, P 2.11
P8: D 2.35, Q 1.95, L 1.91, K 2.08, H 2.45, S 1.95, W 1.74, A 1.74, F 2.44, R 1.63, Y 1.92, C 2.12, I 2.02
F10: H 2.56, M 2.73, V 2.12, L 2.53, E 3.25, R 2.19, P 2.06
T22: Q 2.31, C 1.62, G 1.59, Y 1.71, S 1.38, R 1.68, W 1.53, M 2.27, D 2.64, L 1.78, N 2.1, I 2.13
Q24: M 1.87, L 2.29, R 1.86, C 1.69, Y 2.4, F 1.77, K 1.81, S 1.94, G 2.2
P23: G 1.53, S 2.27, C 1.88, I 2.74, D 2.15, V 1.81, Q 2.23, Y 1.75, L 1.73, H 2.4, A 2.14
H5: V 2.23, E 2.53, W 2.29, I 1.93, K 2.47, P 2.45, R 2.35, N 2.03, C 1.75, F 2.28, G 2.09
S11: H 1.98, W 2.76, T 1.76, Q 2.71, L 2.54, V 2.85, C 2.65, M 1.93, A 1.96, I 2.71, K 1.92
S21: L 1.53, Y 1.95, M 1.94, H 2, R 2, F 1.68, T 2.07, Q 2, E 2.24, A 2.1, D 1.89, W 2.42, P 1.67
R13: K 2.12, I 1.92, H 2.29, S 2.18, F 1.33, T 1.79, Q 1.99, C 1.26, W 3.13, V 2.67, N 1.8, G 1.92
T16: K 2.08, C 1.68, N 1.62, A 2.29, D 2.13, E 2.46, P 2.14, F 1.92, Q 2.3, M 1.42, W 2.23, R 2.4, L 2.22, H 2.02
